Test results taken from patent publication US20230416410A1 (ZOETIS SERVICES, published 2023).
Numbering of substitutions follows the chain as printed. Each block holds one binder with its values, some of them ahead of it.

Columns and labels:
Test in all cases: SPR Biacore, biotinylated receptor on SA sensor, pH 7.4, 15 C
[1] = target: T1, CTLA4 Fc bIgG1aWinSAS (canine; bovine, UniProt Q9XSI1 36-161, limits assumed)
T1 construct: No linker
T1 sequence: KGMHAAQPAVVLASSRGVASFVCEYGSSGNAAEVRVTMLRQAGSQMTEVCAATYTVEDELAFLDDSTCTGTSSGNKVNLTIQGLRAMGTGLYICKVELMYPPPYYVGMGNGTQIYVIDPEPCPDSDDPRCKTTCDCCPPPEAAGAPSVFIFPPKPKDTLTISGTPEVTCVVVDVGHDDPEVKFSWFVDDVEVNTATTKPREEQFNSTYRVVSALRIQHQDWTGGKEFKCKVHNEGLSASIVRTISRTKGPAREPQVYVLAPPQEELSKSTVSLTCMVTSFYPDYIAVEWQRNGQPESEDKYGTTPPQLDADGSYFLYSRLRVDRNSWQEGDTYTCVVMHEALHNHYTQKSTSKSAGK
Experimental: (§1) A Biacore SPR binding assay was designed to test the affinity of bovine IgG subclasses to bFcgR1, bFcgR2 and bFcgR3. All reported KD's were measured by Biacore (Cytiva, Marlborough, MA, USA) using series S SA sensor. Biotinylated-bovine FcgR1, R2 and R3 were captured on the sensor surface using a modified SA capture method to reach the desired surface density. 10 mM HEPES, 150 mM NaCl, 3 mM EDTA, 0.05% v/v surfactant P20, pH7.4 buffer was used as the running and titration buffer. Various concentrations of bovine CTLA4-Fc fusions or mAbs were titrated and flowed over the receptor surface and affinities were determined using Biacore T200 Evaluation software (Cytiva, Marlborough, MA, USA) with 1:1 binding model. The method of double referencing has been applied where the reference flow cell was subtracted from the flow cell containing immobilized receptors and blank runs containing buffer only were subtracted out from all runs. Flow cells were regenerated using 10 mM Glycine pH1.5. Runs were performed at 15° C.
(§2) The ability to knock out binding to bovine Fc gamma receptors was evaluated by comparing SPR Biacore bFcgR affinity of bIgG1a and bIgG1b wildtype Fc to the bIgG1a and bIgG1b mutations, described above. All mutations made to bIgG1 are identical for the a and b allotypes. Biacore methods for bFcgR1, R2, and R3 were performed as described in Example 1.

[2] = target: T2, CTLA4 Fc bIgG1aSAS (canine; bovine, UniProt Q9XSI1 36-161, limits assumed)
T2 construct: No linker
T2 sequence: T1 sequence with A142L, A143P, A145G
Experimental: as §1, §2

[3] = target: T3, CTLA4 Fc bIgG1a (canine; bovine, UniProt Q9XSI1 36-161, limits assumed)
T3 construct: No linker; also called bIgG1a wildtype; CTLA4 Fc bIgG1a wildtype
T3 sequence: T1 sequence with A142L, A143P, A145G, S237P, S239P
Experimental: as §1, §2

[4] = target: T4, CTLA4 Fc bIgG3a (canine; bovine, UniProt Q9XSI1 36-161, limits assumed)
T4 construct: No linker; also called bIgG3a wildtype; CTLA4 Fc bIgG3a wildtype
T4 sequence: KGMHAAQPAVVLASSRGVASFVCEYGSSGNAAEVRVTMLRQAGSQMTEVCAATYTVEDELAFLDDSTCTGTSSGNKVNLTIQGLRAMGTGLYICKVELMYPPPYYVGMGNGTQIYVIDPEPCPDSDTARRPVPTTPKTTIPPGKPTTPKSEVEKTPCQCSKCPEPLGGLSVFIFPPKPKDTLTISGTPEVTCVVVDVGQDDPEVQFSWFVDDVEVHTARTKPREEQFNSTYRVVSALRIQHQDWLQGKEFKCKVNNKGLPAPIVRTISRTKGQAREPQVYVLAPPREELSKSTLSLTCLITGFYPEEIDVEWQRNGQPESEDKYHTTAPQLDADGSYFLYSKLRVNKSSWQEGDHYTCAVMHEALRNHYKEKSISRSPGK
Experimental: as §1
(§3) Biacore methods for bFcgR1, R2, and R3 were performed as described in Examples above. […] Although the two allotypes have different KDs for bFcgR2 and bFcgR3, both wildtype allotypes do bind. All of the mutations, bIgG3Win, bIgG3WinSAS, bIgG3SAS and bIgG3SAP for both the a and b allotypes knocked down binding to bFcgR1, bFcgR2 and bFcgR3 to negligible affinities. Thus, for knocking out receptor binding, the two allotypes compare similarly.

[5] = target: T5, CTLA4 Fc bIgG3aWin (canine; bovine, UniProt Q9XSI1 36-161, limits assumed)
T5 construct: No linker
T5 sequence: T4 sequence with P165A, L166A, G168A
Experimental: as §1, §3

- binding result [1]: no binding
- binding result [2]: no binding
- Kd [3]: 3.37 nM
- Kd [4]: 68.9 nM
- binding result [5]: no binding
B1: recombinant bovine FcgR2 (receptor)
chain: KPDLPKAVVTIQPAWINVLREDHVTLTCQGTSFSAGNLTTWFHNGSSIHTQKQPSYSFRAGSNDSGSYRCQREQTSLSDPVHLDVISDWLLLQTPSLVFQEGEPIMLRCHSWRNQPLNKITFYQDRKSKIFSYQRTNFSIPRANLSHSGQYHCTAFIGKMLHSSQPVNITVQESSSSGPSSMTHHHHHHAGLNDIFEAQKIEWHE
modifications: biotin on the BAP tag (BirA)
notes: also called bFcgR2; bFcgRII

- binding result [1]: no binding
- binding result [2]: no binding
- Kd [3]: 14.3 nM
- Kd [4]: 7170 nM
- binding result [5]: no binding
B2: recombinant bovine FcgR3 (receptor)
chain: DTQTADPSKAVVLLDPQWNHVLTNDRVTLKCQGDYPVEDNSTKWWHNGTLISSQTPSYFIADVKVQDSGEYKCQTGLSAPSDPVKLEVHVGWLLLQVAQRVVNVGKPIRLKCHSWKKTPVAKVQYFRNGRGKKYSHGNSDFHIPEAKLEHSGSYFCRGIIGSKNESSESVQITVQAPETLQTVSSFFLPWHQHHHHHHAGLNDIFEAQKIEWHE
modifications: biotin on the BAP tag (BirA)
notes: also called bFcgR3; bFcgRIII
